Assay results from patent US20250043017A1 (Regeneron, published 2025).

How the values were obtained:
human 4-1BB on cells [1] = target: T1, human 4-1BB on cells (human, UniProt Q07011 24-255); assay: flow cytometry, Jurkat/NFkB-Luc/h41BB cells
T1 construct: whole, on cells; also called h41BB; CD137
Protocol: Binding was detected by using a labeled secondary antibody and measuring fluorescence on a flow cytometer.
Assay set up: OVCAR-3+/−PD-L1 cells were lifted with trypsin, washed and resuspended in stain buffer (2% FBS in PBS). OVCAR-3 and Jurkat/NFkB-Luc/h41BB cells were counted and added to wells at 200,000 cells/well. Cells, in wells of 96-well round bottom plates, were pelleted by centrifugation and resuspended in 150 ul stain buffer (PBS containing 2% FBS). Plates were once again centrifuged and subsequently 100 ul of stain buffer alone or stain buffer containing antibody, titrated from 200 nM to 12 pM in a 9-point 1:4 dose titration were added to cells. Cells and antibodies were incubated for 30 min on ice and then washed in stain buffer. Cells were resuspended in 2 μg/ml allophycocyanin (APC) conjugated goat-anti human secondary antibody. A secondary antibody alone control was included. Cells and secondary were incubated for 30 min on ice and then washed in stain buffer. After a subsequent wash with PBS (containing no FBS), cells were resuspended in viability dye (reconstituted in DMSO according to the manufacturer's protocol and diluted 1:1000 in PBS) and incubated for 20 min on ice. They were then washed with stain buffer and resuspended in 2% PFA for 30 min at 4 C. After washing they were filtered and analyzed by flow cytometry. EC₅₀ values of the antibodies were determined from a 4 parameter logistic equation over a 9-point dose response curve (including secondary only control) using GraphPad Prism software.

human 4-1BB on cells [2] = target: T1, human 4-1BB on cells; assay: cell-based or functional assay
human 4-1BB on cells [3] = target: T1, human 4-1BB on cells; assay: cell-based or functional assay; remark: listed apart in the source
[4] = target: T2, human 4-1BB expressed with a C-terminal myc-myc-hexahistidine tag (h4-1BB.mmH) (human); assay: SPR Biacore, 25 C, antibody captured via anti-hFc, h4-1BB.mmH as analyte
T2 construct: also called hCD137 (4-1BB) mmH
Protocol: The CM5 Biacore sensor surface was derivatized by amine coupling with a monoclonal mouse anti-human Fc antibody. All Biacore binding studies were performed in a buffer composed of 0.01M HEPES pH 7.4, 0.15M NaCl, 3 mM EDTA, 0.05% v/v Surfactant P20 (HBS-EP running buffer). […] Antibody-reagent association was monitored for 5 minutes while dissociation in HBS-EP running buffer was monitored for 10 minutes. At the end of each cycle, the antibody capture surface was regenerated using a 10 sec injection of 20 mM phosphoric acid. All binding kinetics experiments were performed at 25° C.
Data analysis: The specific SPR-Biacore sensorgrams were obtained by a double referencing procedure. The double referencing was performed by first subtracting the signal of each injection over a reference surface (anti-hFc or anti-mFc) from the signal over the experimental surface (anti-hFc-captured anti-PD-L1×4-1BB antibodies) thereby removing contributions from refractive index changes. In addition, running buffer injections were performed to allow subtraction of the signal changes resulting from the dissociation of captured antibodies or antigens from the coupled anti-hFc or anti-mFc surface. Kinetic association (kₐ) and dissociation (kd) rate constants were determined by fitting the real-time sensorgrams to a 1:1 binding model using Scrubber v2.0c curve fitting software. Binding dissociation equilibrium constants (KD) and dissociative half-lives (t½) were calculated from the kinetic rate constants as: […]

[5] = target: T2, human 4-1BB expressed with a C-terminal …; assay: blocking ELISA, 0.25 nM h4-1BB-mmh binding to coated 6His-Flag-h4-1BBL
Protocol: The 4-1BB blocking assay was performed similarly to the PD-L1 blocking assay. 6His-Flag-h4-1BBL protein ([…] in PBS) was coated onto a 96-well microtiter plate overnight at 4 °C. […] The plates were developed using TMB substrate solution (BD Biosciences) and the absorbance at 450 nm was measured on a SpectraMax I3x plate reader.
Binding data were analyzed using a sigmoidal (four-parameter logistic) dose-response model with GraphPad Prism™ software. […] The percent blocking of tested antibodies at the highest tested concentration of 100 nM was calculated based on the formula shown below: […]

T1 sequence (Q07011 24-255): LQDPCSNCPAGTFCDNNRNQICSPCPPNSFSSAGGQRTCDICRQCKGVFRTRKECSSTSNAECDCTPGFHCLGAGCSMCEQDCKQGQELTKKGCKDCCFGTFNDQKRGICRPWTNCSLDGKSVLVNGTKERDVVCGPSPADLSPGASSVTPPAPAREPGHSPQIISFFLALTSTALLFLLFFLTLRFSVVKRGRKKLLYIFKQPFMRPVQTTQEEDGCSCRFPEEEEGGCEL
T2 sequence (chain, as listed by the source limits assumed): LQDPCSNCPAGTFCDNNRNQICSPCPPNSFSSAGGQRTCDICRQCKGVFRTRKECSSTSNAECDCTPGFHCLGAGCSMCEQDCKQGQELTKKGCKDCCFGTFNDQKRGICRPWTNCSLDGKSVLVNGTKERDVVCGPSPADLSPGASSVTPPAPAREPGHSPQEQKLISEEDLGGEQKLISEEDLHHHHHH

Row | Binder | EC50 (human 4-1BB on cells [1]) | Fold change (max MFI over secondary antibody alone) (human 4-1BB on cells [1]) | Max [gMFI] (human 4-1BB on cells [1]) | IL2 release MAX, human CD3+ T cells + HEK293/hCD20/hPSMA + CD20xCD3 (human 4-1BB on cells [2]) | IL2 release MAX, human CD3+ T cells + HEK293/hCD20/hPSMA, no CD20xCD3 (human 4-1BB on cells [2]) | IL2 release MAX, human CD3+ T cells + HEK293/hCD20/hPSMA/hPD-L1 + CD20xCD3 (human 4-1BB on cells [2]) | IL2 release MAX, human CD3+ T cells + HEK293/hCD20/hPSMA/hPD-L1, no CD20xCD3 (human 4-1BB on cells [2]) | NFkB-luciferase MAX (RLU), Jurkat/NFkB-Luc/h41BB + HEK293/hCD20/hPSMA (human 4-1BB on cells [3]) | NFkB-luciferase MAX (RLU), Jurkat/NFkB-Luc/h41BB + HEK293/hCD20/hPSMA/hPD-L1 (human 4-1BB on cells [3]) | 270 nM h4-1BB-mmH Bind (RU) [4] | Kd [4] | koff [4] | kon [4] | t½ [4] | % Blocking at 100 nM mAb [5] | IC50 [5] | IL2 release EC50, human CD3+ T cells + HEK293/hCD20/hPSMA/hPD-L1 + CD20xCD3 (human 4-1BB on cells [2]) | NFkB-luciferase EC50, Jurkat/NFkB-Luc/h41BB + HEK293/hCD20/hPSMA/hPD-L1 (human 4-1BB on cells [3]) | NFkB-luciferase EC50, Jurkat/NFkB-Luc/h41BB + HEK293/hCD20/hPSMA (human 4-1BB on cells [3])
1 | mAb25907 (antibody, V domains shown, bivalent parental anti-4-1BB antibody of REGN6190; also called 25907P2) VH: EVQLVESGGGLVQPGGSLRLSCEASGFTFSSYEMNWVRQAPGKGLEWISHISSSGSSIYYADSVQGRFTISRDKAKNSLYLQMNSLRAEDTAVYYCTREGFEYGSSSGLKYYYYGLDVWGQGTTVTVSS VL: not shown | 0.00508 nM | 60.5 fold | 140000 gMFI | 9.3 pg/mL | 1.6 pg/mL | 4.6 pg/mL | 1.6 pg/mL | 18500 RLU | 18100 RLU | 67.5 RU | 34.2 nM | 0.0196 s⁻¹ | 572000 M⁻¹ s⁻¹ | 0.6 min | 87% | – | – | – | –
2 | mAb25898 (antibody, V domains shown, bivalent parental anti-4-1BB antibody of REGN6189; also called 25898P2; parental bivalent 4-1BB antibody) VH: QVQLVESGGDVVQPGRSLRLSCTASGFTFSSFGMHWVRQAPGKGLEWVTFLSYDGSYKYYADSVKGRFTISRDNSKNTLYLQMNSLRAEDTAIFYCARDWLDYWGQGTLVTVSS VL: not shown | 0.0406 nM | 53.8 fold | 120000 gMFI | 8.4 pg/mL | 3.3 pg/mL | 5.1 pg/mL | 3.3 pg/mL | 19000 RLU | 19000 RLU | 63.8 RU | 94.5 nM | 0.0282 s⁻¹ | 298000 M⁻¹ s⁻¹ | 0.4 min | 70% | – | – | – | –
3 | mAb25894 (antibody, V domains shown, bivalent parental anti-4-1BB antibody of REGN6188; also called 25894P2; parental bivalent 4-1BB antibody) VH: EVQLVESGGGLVQPGGSLRLSCVASGFTFSSYEMNWVRQAPGKGLEWVSYISNSGTTIYYAGSVKGRFTISRDNAKKSLYLHMNSLRAEDTAVYYCAREGTIFGTVHYYFALDVWGQGTTVTVSS VL: not shown | – | 44.7 fold | 100000 gMFI | 9.6 pg/mL | 1 pg/mL | 7.8 pg/mL | 1 pg/mL | 34300 RLU | 29800 RLU | 35.1 RU | 170 nM | 0.0902 s⁻¹ | 530000 M⁻¹ s⁻¹ | 0.1 min | 61% | – | – | – | 14.8 nM

Second part, the binder after the results:

Row | EC50 (human 4-1BB on cells [1]) | Fold change (max MFI over secondary antibody alone) (human 4-1BB on cells [1]) | Max [gMFI] (human 4-1BB on cells [1]) | IL2 release MAX, human CD3+ T cells + HEK293/hCD20/hPSMA + CD20xCD3 (human 4-1BB on cells [2]) | IL2 release MAX, human CD3+ T cells + HEK293/hCD20/hPSMA, no CD20xCD3 (human 4-1BB on cells [2]) | IL2 release MAX, human CD3+ T cells + HEK293/hCD20/hPSMA/hPD-L1 + CD20xCD3 (human 4-1BB on cells [2]) | IL2 release MAX, human CD3+ T cells + HEK293/hCD20/hPSMA/hPD-L1, no CD20xCD3 (human 4-1BB on cells [2]) | NFkB-luciferase MAX (RLU), Jurkat/NFkB-Luc/h41BB + HEK293/hCD20/hPSMA (human 4-1BB on cells [3]) | NFkB-luciferase MAX (RLU), Jurkat/NFkB-Luc/h41BB + HEK293/hCD20/hPSMA/hPD-L1 (human 4-1BB on cells [3]) | 270 nM h4-1BB-mmH Bind (RU) [4] | Kd [4] | koff [4] | kon [4] | t½ [4] | % Blocking at 100 nM mAb [5] | IC50 [5] | IL2 release EC50, human CD3+ T cells + HEK293/hCD20/hPSMA/hPD-L1 + CD20xCD3 (human 4-1BB on cells [2]) | NFkB-luciferase EC50, Jurkat/NFkB-Luc/h41BB + HEK293/hCD20/hPSMA/hPD-L1 (human 4-1BB on cells [3]) | NFkB-luciferase EC50, Jurkat/NFkB-Luc/h41BB + HEK293/hCD20/hPSMA (human 4-1BB on cells [3]) | Binder
4 | 0.287 nM | 76.9 fold | 170000 gMFI | 10 pg/mL | 1 pg/mL | 5.8 pg/mL | 1 pg/mL | 18000 RLU | 18000 RLU | – | – | – | – | – | 94% | 0.75 nM | – | – | – | mAb25921 (antibody, V domains shown, bivalent parental anti-4-1BB antibody of REGN6191; also called 25921P2; a-4-1BB) VH: QVQLVQSGAEVKKPGASVKVSCKASAYTFTSYGFSWVRQAPGQGLEWMGWISTSNGYTNYAQKIQDRVTMTTDTSTSTAYMELRSLRSDDTAVYYCASLSNWVSFFDYWGQGTLVTVSS VL: not shown
5 | – | – | – | 11.3 pg/mL | 2.5 pg/mL | 10.3 pg/mL | 2.5 pg/mL | 18500 RLU | 18500 RLU | – | – | – | – | – | – | – | – | – | – | mAb9373 (antibody, V domains shown) VH: QVQLVQSGTEVKKPGASVKVSCKASGYTFTAYYMHWVRQAPGQGLDWMGWISPNSGFTNYAQKFQGRVTMTRDTSINTFYMELSGLRSDDTAVYYCAREGSTHHNSFDPWGQGTLVTVSS VL: not shown
6 | – | 22.9 fold | 52000 gMFI | 7.2 pg/mL | 5.1 pg/mL | 45.8 pg/mL | 5.1 pg/mL | 35900 RLU | 562000 RLU | 25.4 RU | 128 nM | 0.0948 s⁻¹ | 742000 M⁻¹ s⁻¹ | 0.1 min | 33% | – | 926 pM | 558 pM | – | REGN6188 (bispecific antibody, human IgG4 S228P, kappa, common light chain 1-39; also called R6188; PD-L1x4-1BB REGN6188) heavy 1: EVQLVESGGGLVQPGRSLRLSCAASGFTFDDYALHWVRQAPGKGLEWVSGISWTGGTIDYADSVKGRFTISRDNAKNSLYLQMSSLRTEDTAIYYCTRDIRGNWKYGGWFDPWGQGTLVTVSSASTKGPSVFPLAPCSRSTSESTAALGCLVKDYFPEPVTVSWNSGALTSGVHTFPAVLQSSGLYSLSSVVTVPSSSLGTKTYTCNVDHKPSNTKVDKRVESKYGPPCPPCPAPPVAGPSVFLFPPKPKDTLMISRTPEVTCVVVDVSQEDPEVQFNWYVDGVEVHNAKTKPREEQFNSTYRVVSVLTVLHQDWLNGKEYKCKVSNKGLPSSIEKTISKAKGQPREPQVYTLPPSQEEMTKNQVSLTCLVKGFYPSDIAVEWESNGQPENNYKTTPPVLDSDGSFFLYSRLTVDKSRWQEGNVFSCSVMHEALHNHYTQKSLSLSLGK heavy 2: EVQLVESGGGLVQPGGSLRLSCVASGFTFSSYEMNWVRQAPGKGLEWVSYISNSGTTIYYAGSVKGRFTISRDNAKKSLYLHMNSLRAEDTAVYYCAREGTIFGTVHYYFALDVWGQGTTVTVSSASTKGPSVFPLAPCSRSTSESTAALGCLVKDYFPEPVTVSWNSGALTSGVHTFPAVLQSSGLYSLSSVVTVPSSSLGTKTYTCNVDHKPSNTKVDKRVESKYGPPCPPCPAPPVAGPSVFLFPPKPKDTLMISRTPEVTCVVVDVSQEDPEVQFNWYVDGVEVHNAKTKPREEQFNSTYRVVSVLTVLHQDWLNGKEYKCKVSNKGLPSSIEKTISKAKGQPREPQVYTLPPSQEEMTKNQVSLTCLVKGFYPSDIAVEWESNGQPENNYKTTPPVLDSDGSFFLYSRLTVDKSRWQEGNVFSCSVMHEALHNRFTQKSLSLSPGK light: not shown
